Results: patent US20260028402A1 (published 2026)
Where two headings read alike, the source gives them in different places.

Key:
CynoCD100-HEK293 [1] = target: CynoCD100-HEK293 (cynomolgus monkey); assay: FACS
CynoCD100-HEK293 [2] = target: CynoCD100-HEK293 (cynomolgus monkey); assay: FACS; remark: listed apart in the source
[3] = target: full-length human CD100 protein HuCD100 on cells (human, UniProt Q92854 22-862); assay: FACS
HuCD100-His [4] = target: T1, HuCD100-His (human, UniProt Q92854 22-734); assay: ELISA
MusCD100-His [5] = target: T2, MusCD100-His (mouse, UniProt O09126 24-733); assay: ELISA
T2 chain: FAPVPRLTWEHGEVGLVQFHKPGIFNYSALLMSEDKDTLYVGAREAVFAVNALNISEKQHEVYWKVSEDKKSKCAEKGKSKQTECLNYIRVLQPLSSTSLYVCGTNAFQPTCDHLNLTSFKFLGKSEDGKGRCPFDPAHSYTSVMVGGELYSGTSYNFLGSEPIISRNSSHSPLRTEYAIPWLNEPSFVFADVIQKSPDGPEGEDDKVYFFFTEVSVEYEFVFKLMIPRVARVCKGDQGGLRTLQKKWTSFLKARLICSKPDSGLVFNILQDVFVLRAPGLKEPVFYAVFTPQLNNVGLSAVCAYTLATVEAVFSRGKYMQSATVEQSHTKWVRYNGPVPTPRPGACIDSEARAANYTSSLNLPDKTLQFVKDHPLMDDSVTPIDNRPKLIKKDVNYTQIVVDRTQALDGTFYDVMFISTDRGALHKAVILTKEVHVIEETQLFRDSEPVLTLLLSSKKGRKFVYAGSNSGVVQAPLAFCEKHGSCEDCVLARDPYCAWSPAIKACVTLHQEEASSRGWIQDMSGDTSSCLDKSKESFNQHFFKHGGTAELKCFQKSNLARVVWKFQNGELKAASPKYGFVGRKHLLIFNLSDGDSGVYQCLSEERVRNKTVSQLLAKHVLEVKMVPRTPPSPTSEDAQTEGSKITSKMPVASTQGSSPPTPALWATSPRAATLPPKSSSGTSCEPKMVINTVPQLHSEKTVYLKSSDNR

CynoCD100-His [6] = target: CynoCD100-His (cynomolgus monkey); assay: ELISA
CynoCD100-His [7] = target: CynoCD100-His (cynomolgus monkey); assay: ELISA; FIG. 5F
HuCD100-His [8] = target: T1, HuCD100-His; assay: ELISA; FIG. 5D
MusCD100-His [9] = target: T2, MusCD100-His; assay: ELISA; FIG. 5E
[10] = target: Human Semaphorin 4D/SEMA4D/CD100 Protein, Fc Tag (Acro, CD0-H5257) (human, UniProt Q92854 22-734); assay: ELISA; last HuCD100-Fc row
[11] = target: T3, HuCD100-Fc (in-house prepared) (human, UniProt Q92854 22-734, biotinylated in the Plexin binding and blocking assays (sites not given)); assay: ELISA; first HuCD100-Fc row
[12] = target: T3, HuCD100-Fc (in-house prepared); assay: FACS blocking; HuPlexin-B1-HEK293, FIG. 12A
[13] = target: T3, HuCD100-Fc (in-house prepared); assay: FACS blocking; HuPlexin-B2-HEK293, FIG. 12D
[14] = target: T3, HuCD100-Fc (in-house prepared); assay: FACS blocking; blocking of binding to HuPlexin-B1-HEK293
[15] = target: T3, HuCD100-Fc (in-house prepared); assay: FACS blocking; FIG. 8B, blocking of binding to HuPlexin-B2-HEK293

B1: Pepinemab (antibody, V domains shown)
VH: QVQLVQSGAEVKKPGSSVKVSCKASGYSFSDYYMHWVRQAPGQGLEWMGQINPTTGGASYNQKFKGKATITVDKSTSTAYMELSSLRSEDTAVYYCARYYYGRHFDVWGQGTTVTVSS
VL: DIVMTQSPDSLAVSLGERATINCKASQSVDYDGDSYMNWYQQKPGQPPKLLIYAASNLESGVPDRFSGSGSGTDFTLTISSLQAEDVAVYYCQQSNEDPYTFGQGTKLEIK
CynoCD100-HEK293 [1]
  EC50: 132 pM
CynoCD100-HEK293 [2]
  EC50: 271 pM
[3]
  EC50: 426 pM
HuCD100-His [4]
  EC50: 122 pM
MusCD100-His [5]
  EC50: 90.8 pM
CynoCD100-His [6]
  EC50: 93.8 pM
CynoCD100-His [7]
  EC50: 99.3 pM
HuCD100-His [8]
  EC50: 37.6 pM
MusCD100-His [9]
  EC50: 144 pM
[10]
  EC50: 0.0659 µg/mL
[11]
  EC50: 0.0469 µg/mL
[12]
  IC50: 896 pM
[13]
  IC50: 2060 pM
[14]
  IC50: 3560 pM
[15]
  IC50: 766 pM
